Source: patent US20120114652A1 (AbbVie / Abbott, published 2012)
Where a chain is given by its changes, count along the chain named.

How the values were obtained:
[1] = target: T1, R271S stable mutant human PAI-1 (human, UniProt P05121 24-402); test: SPR BIAcore 2000, Antibody 08 on CM5 chip, PAI-1 protein as analyte
T1 construct: His-tagged, expressed in E. coli
T1 chain: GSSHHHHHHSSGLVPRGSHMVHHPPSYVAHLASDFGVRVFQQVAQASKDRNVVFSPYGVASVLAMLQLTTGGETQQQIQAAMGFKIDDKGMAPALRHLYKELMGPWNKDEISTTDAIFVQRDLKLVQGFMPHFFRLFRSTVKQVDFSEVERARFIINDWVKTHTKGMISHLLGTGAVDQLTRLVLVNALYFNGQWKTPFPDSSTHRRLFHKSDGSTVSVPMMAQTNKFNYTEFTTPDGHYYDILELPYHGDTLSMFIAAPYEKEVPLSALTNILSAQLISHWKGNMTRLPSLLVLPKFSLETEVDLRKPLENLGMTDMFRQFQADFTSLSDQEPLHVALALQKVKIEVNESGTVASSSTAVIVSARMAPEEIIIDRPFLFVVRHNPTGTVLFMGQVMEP

[2] = target: T2, Y220S T267K stable mutant human PAI-1 (human, UniProt P05121 24-402); test: as above
T2 construct: His-tagged, expressed in E. coli
T2 chain: T1 chain with Y240S, T287K, S291R

[3] = target: T3, glycosylated active human PAI-1 produced by CHO cells (human, UniProt P05121 24-402, N-glycosylated (CHO-produced)); test: SPR BIAcore T100, Antibody 08 on CM3 chip, PAI-1 as analyte, 25 C, n = 5
T3 construct: also called hu glyco; human glycosylated PAI-1

cynomolgus PAI-1 [4] = target: T4, cynomolgus PAI-1 (cynomolgus, UniProt P05121 24-402 (human entry), limits assumed); test: as above
T4 construct: bacterially derived, made in house; also called cyno PAI-1

[5] = target: T3, glycosylated active human PAI-1 …; test: SPR BIAcore T100, Antibody 08 on CM3 chip, PAI-1 as analyte, 37 C, n = 2
rat PAI-1 = target: T5, rat PAI-1 (rat, UniProt P20961 24-402); test: SPR BIAcore T100, Antibody 08 on CM3 chip, PAI-1 as analyte, 25 C, n = 2
T5 construct: bought (US Biological)
T5 sequence: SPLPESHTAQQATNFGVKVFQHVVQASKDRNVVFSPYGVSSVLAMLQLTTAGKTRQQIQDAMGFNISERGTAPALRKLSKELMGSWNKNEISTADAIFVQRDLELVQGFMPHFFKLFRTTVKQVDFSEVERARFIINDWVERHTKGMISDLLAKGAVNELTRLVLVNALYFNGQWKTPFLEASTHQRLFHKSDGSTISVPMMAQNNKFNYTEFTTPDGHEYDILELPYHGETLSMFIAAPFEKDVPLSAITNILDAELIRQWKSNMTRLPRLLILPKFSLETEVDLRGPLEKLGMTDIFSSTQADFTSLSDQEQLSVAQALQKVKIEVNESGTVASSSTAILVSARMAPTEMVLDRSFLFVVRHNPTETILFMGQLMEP

cynomolgus PAI-1 [6] = target: T4, cynomolgus PAI-1; test: SPR BIAcore T100, Antibody 08 on CM3 chip, PAI-1 as analyte, 37 C, n = 1

Kd [1]: 7.4 nM
Kd [2]: 0.14 nM
Kd [3]: 0.006 nM
Kd (cynomolgus PAI-1 [4]): 0.013 nM
Kd [5]: 0.007 nM
Kd (rat PAI-1): 0.105 nM
Kd (cynomolgus PAI-1 [6]): 0.013 nM
B1: Antibody 08 (as coupled to the BIAcore chip; format not stated) (antibody, V domains shown)
VH: QVQLVQSGAEVKKPGSSVKVSCKASGGTFSSYAISWVRQAPGQGLEWMGGIIPTFGTANYAQKFQGRVTITADESTSTAYMELSSLRSEDTAVYYCARERRQWLEGHFDYWGRGTLVTVSS
VL: DIQMTQSPSTLSASVGDRVTITCRASEGIYHNLAWYQQKPGKAPKLLIYKASSLASGVPSRFSGSRSGTEFTLTISSLQPDDFATYYCQQYSNYPLTFGGGTKVEIK
notes: also called candidate antibody (Antibody 08)
